Patent US20210130420A1, “RECOMBINANT BINDING PROTEINS TARGETING HER2 AND SERUM ALBUMIN, AND THEIR USES” (Molecular Partners AG, priority 2016, published 2021)
Where “and” joins values, the source holds several entries; their conditions need not be identical. Equal values may be shown once.

How the values were obtained:
[1] = Thermal stability by circular dichroism; assay type: physicochemical; details: 0.4 μM in PBS
Method: Protein #21 was expressed and purified as described in Example 1. Thermal stability was evaluated using circular dichroism using a Jasco J-815 CD spectrometer in a nitrogen atmosphere (3 L/min). Protein #21 at 0.4 μM in PBS in 117.100F-QS cuvettes (Hellma, d=1 cm) with in-solution temperature control sensors were measured, heating from 20° C. to 95° C. (below 45° C.: +3° C./min; above 45° C.: +1° C./min recording the signal at 222 nm, a 1 min delay at 95° C. and a subsequent cooling phase (inverted program compared to heating phase). The CD signal was normalized to mean residual ellipticity (MRE) with the unit deg cm2 dmol-1. Additionally, the far-UV CD spectrum was recorded.

GXA281 = test: Gastric cancer PDX mouse model GXA281; assay type: in vivo; details: FIG. 4E; Protein #21 40 mg/kg every three days for 6 times i.v.; Lapatinib 100 mg/kg/day for 21 days
Method: In a similar experiment, Protein #21 was further tested in the gastric cancer PDX mouse model GXA281, well known to the person skilled in the art, in comparison to the standard of care Lapatinib (FIG. 4E). Briefly, tumor implantation and tumor growth monitoring was done as described above. Lapatinib was dosed at 100 mg/kg/day for 21 days daily […]. and Protein #21 at 40 mg/kg every three days for 6 times i.v.

[2] = molecular target: extracellular domains of HER3 (Homo sapiens, UniProt P21860); test: Surface plasmon resonance interaction with HER3; assay type: binding
human serum albumin = human serum albumin (Homo sapiens, UniProt P02768); test: Size exclusion chromatography coupled to static light scattering with human serum albumin; assay type: binding; details: 30 μM Protein #21, 60 μM human serum albumin, 1:2 mixture in PBS
Method: Protein #21 was expressed and purified as described in Example 1. Size exclusion chromatography coupled to static light scattering (Superdex 200 10/300GL (GE Healthcare), Agilent 1200 (Life Technologies), Wyatt Optilab Trex (RI) and MiniDawnTreos (MALS)) was performed using 30 μM Protein #21, 60 μM human serum albumin (CSL Behring 20% solution was used to purify the monomeric fraction of human serum albumin by size exclusion chromatography on a Superdex 200 26/60 column (GE Healthcare)), or a 1:2 mixture of the two, in PBS.

[3] = Pharmacokinetic analysis in cynomolgus monkey; assay type: in vivo
Method: The measurements shown in this example are the result of a half-life engineering effort as described in Example 11. Protein #21-His, Protein #23-His, and Protein #24-His were expressed and purified as described in Example 1. The pharmacokinetic properties of the proteins were assessed in cynomolgus monkey. Proteins were administered via intravenous infusion for 30 min at a target dose level of between 1 mg/kg to cynomolgus monkeys. Blood samples were collected pre-dose and again at selected time points, for example 5 min, 10 min, 0.5 hours, 1 hour, 2 hours, 4 hours, 8 hours, 12 hours, 24 hours, 48 hours, 72 hours, 96 hours, 120 hours, 144 hours, 168 hours, 192 hours, 216 hours, and 240 hours post-end of infusion (i.e. post-injection). The blood samples were allowed to stand at room temperature and were centrifuged to generate serum, followed by storage at −80° C. pending analyses. Pharmacokinetic parameters were determined using procedures well known to the person skilled in the art. Serum concentrations of proteins were determined by sandwich ELISA using a rabbit monoclonal anti-designed ankyrin repeat domain antibody as capture reagent and murine monoclonal anti-designed ankyrin repeat domain antibody as detection reagent, and using a standard curve. Pharmacokinetic parameters were determined using standard software such as Phoenix WinNonLin (Certara, Princeton, USA) or Graph Pad Prism (GraphPad Software, La Jolla, USA) and standard analyses such as non-compartmental analyses. […] Target mediated clearance is well-known to the person skilled in the art and is known from e.g. antibodies targeting HER2.
Similarly, Protein #21-His was expressed and purified as described in Example 1. The pharmacokinetic properties of the proteins were assessed in cynomolgus monkey as described above at 1 mg/kg, 5 mg/kg and 10 mg/kg.
Similar results are observed when testing Protein #21 (expressed and purified as described in Example 1). The pharmacokinetic properties of the proteins are assessed in cynomolgus monkey as described above at 1 mg/kg, 10 mg/kg and 100 mg/kg. Pharmacokinetic parameters are evaluated as described above.
For the studies in this example Protein #21-His, Protein #24-His, Protein #28-His, Protein #29-His, and Protein #30-His were prepared according to Example 1. Protein #28-His was additionally PEGylated using a 40 kDa PEG moiety (NOF Sunbright GL2-400MA) by maleimid coupling of the PEG-moiety onto the free C-terminal cysteine of Protein #28-His, followed by purification to homogeneity using standard purification methods, procedures well known to the person skilled in the art. Pharmacokinetic analyses in mouse or cynomolgus monkey were performed as described in Examples 8 and 9.

[4] = molecular target: human HER2 and human serum albumin (Homo sapiens, UniProt P02768+P04626); test: Surface plasmon resonance simultaneous binding
[5] = tested on: SKBR-3, SKOV-3, NCI-N87, ZR-75-30, HCC1419, or MDA-MB175; test: Induction of apoptosis in further cell lines; assay type: cell-based

interaction with extracellular domains of HER3 [2]: does not interact
B1: Protein #21: SEQ ID NO: 21; HER2 binding domains (SEQ ID NOs: 16, 17) flanked by two serum albumin binding domains (SEQ ID NO: 14), SEQ ID NO: 9 linkers (protein)
chain: GSDLGKKLLEAARAGQDDEVRELLKAGADVNAKDYFSHTPLHLAARNGHLKIVEVLLKAGADVNAKDFAGKTPLHLAANEGHLEIVEVLLKAGADVNAQDIFGKTPADIAADAGHEDIAEVLQKAAGSPTPTPTTPTPTPTTPTPTPTGSDLGIKLLFAAAKGQDDEVRELLKAGADVNAKDFQGVTPLHIAAQSGHLEIVEVLLKAGADVNAKDVTGDTPLHLAAQHGHLEIVEVLLKAGADVNAQDERGWTPADLAADWGHEDIAEVLQKAAGSPTPTPTTPTPTPTTPTPTPTGSDLGKKLLEAARAGQDDEVRELLKAGADVNAKDEYGLTPLYLATAHGHLEIVEVLLKAGADVNAVDAIGFTPLHLAAFIGHLEIAEVLLKAGADVNAQDKFGKTPADIAAGAGNEDIAEVLQKAAGSPTPTPTTPTPTPTTPTPTPTGSDLGKKLLEAARAGQDDEVRELLKAGADVNAKDYFSHTPLHLAARNGHLKIVEVLLKAGADVNAKDFAGKTPLHLAANEGHLEIVEVLLKAGADVNAQDIFGKTPADIAADAGHEDIAEVLQKAA
modifications: Protein comprising four designed ankyrin repeat domains
temperature above which loss of signal at 222 nm is detected [1]: above 78 °C
inhibition of tumor growth (GXA281): strong inhibition of tumor growth compared to Lapatinib
simultaneous binding of two serum albumin molecules (human serum albumin): can bind two serum albumin molecules simultaneously
dose dependence of the terminal half-life ([3]; 1 mg/kg, 10 mg/kg and 100 mg/kg): dose dependent increase
pharmacokinetic properties compared to PEGylated Protein #28 ([3]; 5 mg/kg doses): markedly improved pharmacokinetic properties
terminal half-life ([3]; 100 mg/kg): 109.5 h and 130.6 h
simultaneous binding of human HER2 and human serum albumin [4]: can bind human HER2 and human serum albumin simultaneously
potency in inducing apoptosis in further cell lines [5]: high potency in inducing apoptosis
